US20030133924A1

Assays:
[1] = molecular target: Mannose 6-phosphate (M6P) receptor purified from bovine liver, coupled to NHS-Sepharose 4B FF resin (bovine); assay: M6P receptor affinity column, 0-1 mM then 5 mM M6P elution; GBA activity in fractions (FIG. 1B)
[2] = molecular target: Mannose 6-phosphate (M6P) receptor purified from bovine liver, coupled to NHS-Sepharose 4B FF resin (bovine); assay: M6P receptor affinity column, 0-1 mM then 5 mM M6P elution; GBA activity in fractions (FIG. 1A)

Chain of Mannose 6-phosphate (M6P) receptor purified from bovine liver, coupled to NHS-Sepharose 4B FF resin (bovine) (P08169 45-2499): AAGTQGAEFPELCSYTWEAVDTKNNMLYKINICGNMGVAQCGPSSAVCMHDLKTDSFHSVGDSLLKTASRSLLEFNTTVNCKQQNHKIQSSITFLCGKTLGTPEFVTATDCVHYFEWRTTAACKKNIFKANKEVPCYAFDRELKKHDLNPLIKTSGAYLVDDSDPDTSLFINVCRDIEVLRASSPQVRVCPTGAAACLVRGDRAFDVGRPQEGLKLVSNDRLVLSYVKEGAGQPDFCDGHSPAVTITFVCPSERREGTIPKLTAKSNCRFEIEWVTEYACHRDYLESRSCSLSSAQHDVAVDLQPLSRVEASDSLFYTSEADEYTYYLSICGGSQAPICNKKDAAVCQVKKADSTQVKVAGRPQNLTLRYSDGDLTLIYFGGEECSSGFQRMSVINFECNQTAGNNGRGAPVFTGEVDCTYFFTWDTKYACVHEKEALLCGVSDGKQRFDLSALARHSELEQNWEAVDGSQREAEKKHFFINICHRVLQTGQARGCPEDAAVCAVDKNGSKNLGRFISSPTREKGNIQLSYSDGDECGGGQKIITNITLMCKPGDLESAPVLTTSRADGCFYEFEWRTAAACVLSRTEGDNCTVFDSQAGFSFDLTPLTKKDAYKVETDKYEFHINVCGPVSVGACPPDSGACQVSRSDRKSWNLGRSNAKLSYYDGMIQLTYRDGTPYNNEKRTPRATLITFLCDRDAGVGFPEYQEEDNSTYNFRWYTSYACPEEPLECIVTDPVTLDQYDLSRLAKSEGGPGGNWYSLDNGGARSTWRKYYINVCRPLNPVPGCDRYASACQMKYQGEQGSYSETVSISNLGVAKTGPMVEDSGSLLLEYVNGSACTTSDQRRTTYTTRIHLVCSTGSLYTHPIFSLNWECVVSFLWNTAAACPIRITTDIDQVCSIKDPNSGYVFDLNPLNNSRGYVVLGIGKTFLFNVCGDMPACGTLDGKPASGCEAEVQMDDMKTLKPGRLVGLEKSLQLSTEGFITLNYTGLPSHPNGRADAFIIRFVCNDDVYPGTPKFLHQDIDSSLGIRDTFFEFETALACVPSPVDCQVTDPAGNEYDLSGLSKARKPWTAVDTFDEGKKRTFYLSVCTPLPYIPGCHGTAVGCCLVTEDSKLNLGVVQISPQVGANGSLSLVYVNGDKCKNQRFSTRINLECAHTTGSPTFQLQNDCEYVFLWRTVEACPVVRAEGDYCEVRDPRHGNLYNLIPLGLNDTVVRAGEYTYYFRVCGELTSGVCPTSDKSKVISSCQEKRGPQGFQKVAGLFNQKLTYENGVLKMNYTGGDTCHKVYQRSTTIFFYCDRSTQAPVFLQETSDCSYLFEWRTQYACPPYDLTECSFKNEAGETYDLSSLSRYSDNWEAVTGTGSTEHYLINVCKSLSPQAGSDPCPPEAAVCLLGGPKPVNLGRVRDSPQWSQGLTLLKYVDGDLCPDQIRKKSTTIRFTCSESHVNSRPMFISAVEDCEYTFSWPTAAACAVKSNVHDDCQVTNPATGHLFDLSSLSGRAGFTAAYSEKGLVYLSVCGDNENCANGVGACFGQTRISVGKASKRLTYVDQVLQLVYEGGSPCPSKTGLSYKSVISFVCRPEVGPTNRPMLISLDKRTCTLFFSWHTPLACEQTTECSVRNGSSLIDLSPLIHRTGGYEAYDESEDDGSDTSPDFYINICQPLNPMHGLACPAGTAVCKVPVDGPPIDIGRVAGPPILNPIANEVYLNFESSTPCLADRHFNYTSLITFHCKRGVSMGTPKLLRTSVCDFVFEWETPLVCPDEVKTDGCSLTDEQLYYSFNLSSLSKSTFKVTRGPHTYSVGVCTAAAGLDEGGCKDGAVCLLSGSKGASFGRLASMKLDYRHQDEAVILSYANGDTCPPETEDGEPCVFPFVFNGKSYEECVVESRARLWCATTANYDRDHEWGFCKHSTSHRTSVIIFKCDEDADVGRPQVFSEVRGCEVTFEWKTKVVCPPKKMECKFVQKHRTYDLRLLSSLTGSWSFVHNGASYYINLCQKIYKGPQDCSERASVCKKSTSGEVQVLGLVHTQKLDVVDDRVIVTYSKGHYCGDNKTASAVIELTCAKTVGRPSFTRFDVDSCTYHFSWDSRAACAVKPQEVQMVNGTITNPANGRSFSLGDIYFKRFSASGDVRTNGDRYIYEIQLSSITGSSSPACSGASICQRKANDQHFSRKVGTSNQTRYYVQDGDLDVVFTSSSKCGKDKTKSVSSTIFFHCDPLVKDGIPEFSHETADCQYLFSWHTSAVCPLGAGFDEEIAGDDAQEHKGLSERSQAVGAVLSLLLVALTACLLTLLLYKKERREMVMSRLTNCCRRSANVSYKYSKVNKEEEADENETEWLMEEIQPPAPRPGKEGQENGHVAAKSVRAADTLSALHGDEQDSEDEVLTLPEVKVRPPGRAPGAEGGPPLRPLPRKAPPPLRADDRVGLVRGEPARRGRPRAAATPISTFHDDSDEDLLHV

Substance | percent of GBA activity eluted after the start of the M6P gradient (retained on the receptor column) [1] [%] | percent of the retained GBA activity eluted only after the addition of 5 mM M6P [1] [%] | percent of sample eluted prior to the start of the M6P gradient (not retained on the receptor column) [2] [%]
highly phosphorylated human acid β-glucocerebrosidase (HP-GBA), treated with GlcNAc-phosphotransferase and uncovering enzyme (from UniProt P04062 40-536) | 77 | 35 | –
human acid β-glucocerebrosidase (GBA), partially purified, before phosphorylation (from UniProt P04062 40-536) (enzyme) | – | – | > 99
